Biological target: Acanthamoeba actin (Acanthamoeba)

- kon: 7.8e+06 M⁻¹ s⁻¹
Substance: Acanthamoeba actin (natural protein)
